Where “and” joins values, the source holds several entries; their conditions need not be identical. Equal values may be shown once.
Columns and labels:
Experiment in all cases: cell-based or functional assay
[1] = target: subtilisin 309 variant S99D+S101R+S103A+V104I+G160S+A194P+V199M+V205I+*216aE (B. Lentus) (UniProt P29600)
[2] = target: Savinase® (subtilisin 309, BLSAVI) (B. Lentus) (UniProt P29600)
[3] = target: subtilisin 309 variant S99SD+S99A+N155NA (B. Lentus) (UniProt P29600)
[4] = target: subtilisin 309 variant L217LP+S99SD+S99A (B. Lentus) (UniProt P29600)
[5] = target: subtilisin 309 variant S99SD+S99A+N155ND (B. Lentus) (UniProt P29600)
[6] = target: subtilisin 309 variant S99SD+S99A+N155NR (B. Lentus) (UniProt P29600)
[7] = target: subtilisin 309 variant S99SD+S99A+S216SDP (B. Lentus) (UniProt P29600)
[8] = target: subtilisin 309 variant S99D+S101R+S103A+V104I+G160S+A194P+V199M+V205I+*216aD (B. Lentus) (UniProt P29600)
[9] = target: subtilisin 309 variant L42LN (B. Lentus) (UniProt P29600)

- Residual Activity (%) [1]: 25.4%
- Residual Activity (%) [2]: < 5%
- Residual Activity (%) [3]: 7.4%
- Residual Activity (%) [4]: 97%
- Residual Activity (%) [5]: 10.7% and 7.1%
- Residual Activity (%) [6]: 6.5%
- Residual Activity (%) [7]: 35%
- Residual Activity (%) [8]: 24%
- Residual Activity (%) [9]: 69.2%
Substance: trypsin inhibitor type IV-0 (Sigma T-1886) (from UniProt P10184 69-517)

Reference: patent EP2360247A1
